According to paper PMC13544220, “Glycemic and bodyweight effects of GIPR coding variation reflect differences in surface expression and intrinsic functional impairment” (Science Advances, 2026):

Assays:
Format in all cases: cell-based, human
[1] = system: wild-type and variant SNAP-GIPR; test: Surface SNAP-GIPR expression (SNAP-tag labelling) in AD293 cells; details: for AD293 Surface: Fig S3E, mean; for Surface SNAP-GIPR expression: sheet Fig 1C;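 for all read-outs here: scaled to the experimental average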
Method in brief: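 Surface GIPR is quantified from wide-field images after labelling intact transfected cells with a membrane-impermeant SNAP probe at 500 nM for 10 min at room temperature. Specific signal, corrected for nontransfected cells, is normalized to the experiment-wide average or to wild-type.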

[2] = system: wild-type and variant SNAP-GIPR; test: Single-concentration GIP cAMP response by HTRF in INS-1 cells; details: Fig S3E, mean
Procedure: (§1) All variants were tested in parallel on each occasion to control for transfection efficiency differences between experiments.

[3] = system: wild-type and variant SNAP-GIPR; test: Constitutive and agonist-mediated internalization, reversible SNAP-tag labelling, AD293 cells; parameters: key to Internalisation, Vehicle / Internalisation, +GIP / Internalisation, GIP-only: % internalization: residual fluorescence after Mesna vs pre-Mesna; Surface expression: unit not given here; details: Mean
Procedure: (§2) Twenty-four hours before the experiment, AD293 or INS-1 cells were reverse transfected with GIPR variant or wild-type plasmids using Lipofectamine 2000 in 96-well, clear-bottom, black microplates precoated with poly-D-lysine. All variants were tested in parallel on each occasion to control for transfection efficiency differences between experiments. […] Media were then removed, cells washed with PBS and then placed in TNE buffer (pH 8.6) for imaging. […] After 10 min, the well was reimaged again to detect remaining fluorescence from internalized GIPR. Images were analyzed as in the “Assessment of surface GIPR expression by SNAP-tag labeling in cell lines” section, with the residual specific fluorescence after Mesna treatment expressed relative to the pre-Mesna value to establish percentage internalization.

[4] = system: wild-type and variant SNAP-GIPR; test: cADDis cAMP imaging in AD293 cells, ensemble, expression-matched and per decile; details: Fig S3F, cADDis, mean
Procedure: AD293 cells were reverse transfected with the GIPR variant or wild-type plasmids using Lipofectamine 2000 and cotransduced with the cADDis Green Up BacMam (10 μl per well, Montana Molecular, USA), in 96-well, poly-D-lysine–coated microplates. All variants were tested in parallel on each occasion to control for transfection efficiency differences between experiments. After 24 hours, cells were labeled using 500 nM SNAP-Surface Alexa Fluor 647 for 10 min at room temperature. Cells were washed three times and then imaged in KRBH buffer containing 6 mM glucose and 0.1% BSA. Imaging was performed at 37°C by wide-field microscopy using the same microscope as in the “Assessment of surface GIPR expression by SNAP-tag labeling in cell lines” section, with 9 FOVs for both cADDis and SNAP-Surface fluorescence acquired from each well using a 10X, 0.45 NA air objective. […] Flat-field correction was performed using BaSiC ([72]), drift correction was performed using SIFT, and a maximum intensity projection of the cADDis channel was used to segment individual cells. cAMP responses were determined by quantifying the cADDis fluorescence intensity for each cell at each time point. Nonviable cells or noncell objects were excluded according to criteria for allowable cell IBMX/FSK responses. […] The cADDis mask was then used to quantify the SNAP-Surface signal from each cell. Wild-type SNAP-Surface readings were split into deciles, and these deciles were subsequently used to categorize variant-transfected cells to match against the wild type. After trimming the top and bottom deciles, the mean was taken of each decile mean for surface expression level or cAMP response, which achieved matched expression levels by effectively applying an inverse weighting to counteract differences in cell number in each decile for different variants. Ensemble expression levels or cAMP responses were calculated without regard to deciles. Variant cADDis responses were also analyzed within their own surface expression deciles.

[5] = system: wild-type and variant SNAP-GIPR; test: Surface SNAP-GIPR expression (SNAP-tag labelling) in INS-1 cells; details: Fig 4G; Mean
Procedure: Twenty-four hours before the experiment, AD293 or INS-1 cells were reverse transfected with GIPR variant or wild-type plasmids using Lipofectamine 2000 in 96-well, clear-bottom, black microplates precoated with poly-D-lysine. All variants were tested in parallel on each occasion to control for transfection efficiency differences between experiments. Cells were then labeled using the cell-impermeant probe SNAP-Surface Alexa Fluor 647 (500 nM, New England Biolabs, USA) for 10 min at room temperature to label only surface GIPR. […] Several fields of view (FOVs) were acquired within each well using a 20X, 0.75–numerical aperture (NA) air objective. Surface GIPR fluorescence was quantified after flat-field correction using BaSiC ([72]) and segmenting using Phantast ([73]), which generates a mask based on the phase contrast images to demarcate cell versus noncell. Wide-field imaging of the surface-specific labeling achieved by SNAP-Surface probes means that surface expression can be established from whole-cell fluorescence, after subtracting nonspecific fluorescence from a separate well containing nontransfected cells processed in parallel from the same experiment. Data were normalized by dividing by the average specific signal across each experiment, or by the wild-type value, as indicated in the figure legends.

[6] = system: wild-type and variant SNAP-GIPR; test: Single-concentration GIP cAMP response by HTRF in AD293 cells; details: Fig S3F, HTRF, mean;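 note: ratio to experiment-wide average response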
Procedure: as §1

[7] = system: wild-type and variant SNAP-GIPR; test: Constitutive and agonist-mediated internalization, reversible SNAP-tag labelling, INS-1 cells; parameters: key to Internalisation, GIP-only / Internalisation, Vehicle / Internalisation, +GIP: % internalization: residual fluorescence after Mesna vs pre-Mesna; details: Mean
Procedure: as §2

B1: A268V (protein, UniProt P48546 22-466, looked up, variant A268V)
Gastric inhibitory …: RAETGSKGQTAGELYQRWERYRRECQETLAAAEPPSGLACNGSFDMYVCWDYAAPNATARASCPWYLPWHHHVAAGFVLRQCGSDGQWGLWRDHTQCENPEKNEAFLDQRLILERLQVMYTVGYSLSLATLLLALLILSLFRRLHCTRNYIHINLFTSFMLRAAAILSRDRLLPRPGPYLGDQALALWNQALAACRTAQIVTQYCVGANYTWLLVEGVYLHSLLVLVGGSEEGHFRYYLLLGWGAPVLFVIPWVIVRYLYENTQCWERNEVKAIWWIIRTPILMTILINFLIFIRILGILLSKLRTRQMRCRDYRLRLARSTLTLVPLLGVHEVVFAPVTEEQARGALRFAKLGFEIFLSSFQGFLVSVLYCFINKEVQSEIRRGWHHCRLRRSLGEEQRQLPERAFRALPSGSGPGEVPTSRGLSSGTLPGPGNEASRELESYC
AD293 Surface ([1]; column repeated, paired with cAMP 100 nM): 1.382 | AD293 Surface ([1]; paired with cAMP 100 pM): 1.382 | Surface SNAP-GIPR expression ([1]; replicate 1): 1.352 | Surface SNAP-GIPR expression ([1]; replicate 2): 1.469 | Surface SNAP-GIPR expression ([1]; replicate 3): 1.684 | Surface SNAP-GIPR expression ([1]; replicate 4): 1.15 | Surface SNAP-GIPR expression ([1]; replicate 5): 1.545 | Surface SNAP-GIPR expression ([1]; replicate 6): 1.48 | Surface SNAP-GIPR expression ([1]; replicate 7): 1.735 | Surface SNAP-GIPR expression ([1]; replicate 8): 0.9896 | Surface SNAP-GIPR expression ([1]; replicate 9): 1.756 | Surface SNAP-GIPR expression ([1]; replicate 10): 1.344 | Surface SNAP-GIPR expression ([1]; replicate 11): 1.392 | Surface SNAP-GIPR expression ([1]; replicate 12): 1.329 | Surface SNAP-GIPR expression ([1]; replicate 13): 1.75 | Surface SNAP-GIPR expression ([1]; replicate 14): 1.057 | Surface SNAP-GIPR expression ([1]; replicate 15): 1.196 | Surface SNAP-GIPR expression ([1]; replicate 16): 1.17 | Surface SNAP-GIPR expression ([1]; replicate 17): 1.366 | Surface SNAP-GIPR expression ([1]; replicate 18): 1.286 | Surface SNAP-GIPR expression ([1]; replicate 19): 1.239 | Surface SNAP-GIPR expression ([1]; replicate 20): 1.203 | Surface SNAP-GIPR expression ([1]; replicate 21): 1.125 | Surface SNAP-GIPR expression ([1]; replicate 22): 1.189 | Surface SNAP-GIPR expression ([1]; replicate 23): 1.374 | Surface SNAP-GIPR expression ([1]; replicate 24): 1.314 | Surface SNAP-GIPR expression ([1]; replicate 25): 1.303 | Surface SNAP-GIPR expression ([1]; replicate 26): 1.296 | Surface SNAP-GIPR expression ([1]; replicate 27): 1.545 | Surface SNAP-GIPR expression ([1]; replicate 28): 1.175 | Surface SNAP-GIPR expression ([1]; replicate 29): 1.642 | Surface SNAP-GIPR expression ([1]; replicate 30): 1.674 | Surface SNAP-GIPR expression ([1]; replicate 31): 1.459 | Surface SNAP-GIPR expression ([1]; replicate 32): 1.555 | Surface SNAP-GIPR expression ([1]; replicate 33): 1.663 | Surface SNAP-GIPR expression ([1]; replicate 34): 1.328 | Surface SNAP-GIPR expression ([1]; replicate 35): 1.277 | Surface SNAP-GIPR expression ([1]; replicate 36): 1.382 | Surface SNAP-GIPR expression ([1]; replicate 37): 1.6 | Surface SNAP-GIPR expression ([1]; replicate 38): 1.461 | Surface SNAP-GIPR expression ([1]; replicate 39): 1.123 | Surface SNAP-GIPR expression ([1]; replicate 40): 1.335 | Surface SNAP-GIPR expression ([1]; replicate 41): 1.367 | INS-1 cAMP (100 nM) [2]: 1.343 | +GIP internalisation (100 nM) ([3]; Fig 4E, GIP 100 nM): 0.7963 | GIP-specific internalisation (100 nM) ([3]; Fig 4E, GIP 100 nM): 0.2682 | Constitutive internalisation (100 nM) ([3]; Fig 4E): 0.5281 | Surface expression ([3]; Fig 4E): 1.472 | Internalisation, +GIP ([3]; Fig S4C, AD293): 57.341 | Internalisation, GIP-only ([3]; Fig S4C, AD293): 19.4051 | Internalisation, Vehicle ([3]; Fig S4C, AD293): 37.9359 | AD293 100 pM cADDis ([4]; AD293, 100 pM): 34.2441 | AD293 100 nM cADDis ([4]; AD293, 100 nM): 37.42 | Surface expression [5]: 1.2654 | AD293 100 pM HTRF ([6]; AD293, 100 pM): 2.332 | AD293 100 nM HTRF ([6]; AD293, 100 nM): 1.283 | +GIP internalisation (100 nM) ([7]; Fig 4G, GIP 100 nM): 0.6195 | GIP-specific internalisation (100 nM) ([7]; Fig 4G, GIP 100 nM): 0.1687 | Constitutive internalisation (100 nM) ([7]; Fig 4G): 0.4508 | Internalisation, +GIP ([7]; Fig S4C, INS-1): 51.1233 | Internalisation, GIP-only ([7]; Fig S4C, INS-1): 13.9983 | Internalisation, Vehicle ([7]; Fig S4C, INS-1): 37.125
